This note sets out measurements from the nanobody polyreactivity screen of Harvey et al. (2022).

This data set is described as follows: yeast display, Sf9 membrane polyspecificity reagent, FACS + sequencing; frameworks hold sequencing errors. Summed up:
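After 36–48 hours of galactose induction, yeast (Saccharomyces cerevisiae BJ5465) displaying a synthetic nanobody library were stained at 4 °C for 1 hour with 10% biotinylated, detergent-solubilized Sf9 membrane reagent. Streptavidin microbeads enriched the stained cells before FACS sorting into low and high (top ~1%) gates on anti-HA and streptavidin fluorescence. Each clone's polyreactivity label reflects its gate of origin.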
For “QVQLEESGGGLVQAGGSLRLICAASGRTFSGNTMGWYIQAPGKERELVAAITGRGGSTYYADSEKGRFTISRDNEKNTVYLQMNSLKPVDTAVYYCAALRYTFAGRFDYWGQGTQVTVSS”, the “polyreactivity (PSR sort gate)” value is on record as “high polyreactivity”.

Regarding “QVQLVESVGGLVQAGGCLRLSCDASGFIFTYVMGWYRQAAGKERELVAVITNGGSTYYADSVKGRFTISRDNAKNSFYLQMNSLKPEDTAVYYCAARDRFRYDAYYYWGLGTQVTVSS”, the “polyreactivity (PSR sort gate)” value is on record as “high polyreactivity”. Turning to “QVQLVESGGGLVQAGGSLRLSCAASGSIVRYSVGWYRQAPGKERELVAAISIGGTTYYADSVKGRFTISRDNAKNTVYLPMNSLKPEDTAVYYCNVRRRTWHYITSMDYWGQGTQVNVSS”, the “polyreactivity (PSR sort gate)” value is on record as “high polyreactivity”. With “QVQLVETGGGLVQAGGTLRLSCADSGSIYEDNAKGWYRQAPGKERELDAAITWSGDSTYYADSVKGRFTISRDTEKNTVYLQMNSLKPEDTAVYYCNTYRIFCYSRYYAGYDYWGQGTQVTVSS” the entry was “low polyreactivity”; with “QVQLVESGGGLVQAGGSLRLSCAASGTLSSYAMGWYRQAPGKERELVAAISLSGGSTYADSVKGRFTISRDNAKNTVYLQMNSLKPEDTAVYYCAKDWDVDITWSFSIYNYWGQGTQVTVSS”, “low polyreactivity”. With “QVHLVESGGGLVQAGGSIRLSCAASGFIFGSYAMGWYRPAPGKERELVAVISASGGGTYYADSVKGRFTISRDNAKYTVYLQMNSLKPEDTAVYYCAAKGVRGFAGYGYWGQGTQVTVSS” the entry was “high polyreactivity”; with “QVQLVESGGGLVQAGGSLRLSCAASGSTFWGYVMGWYRQAPGKERELVAAITGSGGSTYYADSVKGRFTISRDNAKNTVYLQMNSLKPEDTAVYYCAAAWSKSTSRRYGYWGQGTQVTVSS”, “low polyreactivity”; with “QVQLVESGGGLVQAGGSLRLSSAPSGIIIDYYAMGWYRQSPGKERELVAAITSGGSTSYADSEKGGFTISRDNAKKTVYLQMNSLKPEDTAVYYCNTEPSGYESGYWGQGTQVTVSS”, “low polyreactivity”. Consider “QVQLVESAGGLVQAGGSLRLSCAASGYIFGVYAMGWYRQAPGKERELVAAISYGVGSTYYADSVKGRFTISRDNAKNTVYLQMNSLKPEDTAVYYCASDVFFYVYEAYLLYYWGQGTQVTVSS”, for which the “polyreactivity (PSR sort gate)” value is given as “low polyreactivity”.

As for “QEQLQESGGCLVQAGCSLRLSCAPSGTISDSGLMGWYRQPQGKERELVAGISSGGITNYADSVKGRLTISRDNAKNTVYLQMNSLKPEDTAVYYCAADSPVSVTADDGYWGQGTQVTVSS”, the “polyreactivity (PSR sort gate)” value is “low polyreactivity”.

Regarding “QVQLVDSGGGLVQAGGSLRLSCAASGSSVKTYAMGWYRQAPGKERELVASISYSGDTTYADSVKGRFTISRDNAKNSVYLQMNSLKPEDTAVYYCAAGWYYYYYSYQYWDYDYWGQGTQVTVSS”, the “polyreactivity (PSR sort gate)” value is listed as “high polyreactivity”. Turning to “QVQLVESGGGLVQAGGSLRLSCAASGFIFEWNGMGWYRQAPGKERELVAAITWSGGSTYYADSVKGRFTISRDNAKYTVYLHMNSLKPEDTAVYYCAADFPEYYLPYDYWGQGTQVTVSS”, the “polyreactivity (PSR sort gate)” value is recorded as “low polyreactivity”. Regarding “QVQLVESGGGLVQAGGSLRLSCAASGRTVYVYYMGWYRQAPGKERELVAAISTNYADSVKGRCTISRDNAKNTVYFQMNSLIPEDTAVYYCAADDIHYVIHAYYSTGVDYWGQGTQVTVSS”, the “polyreactivity (PSR sort gate)” value is “low polyreactivity”. In the case of “QDQLVDSCGGLVQARGSLRLSCAASGSIFGDYAMGWYRQAPGKEWELVAAISDTDSTNDADSVKGRFTISRDNAKNTVYLQMNSLKREDTAVYSCNGDTWGYLLGYYYYKFAYCGQGTQVTVSS”, the “polyreactivity (PSR sort gate)” value is “low polyreactivity”. With “QVQLVESGGGLVQAGGSLRLSCAASGSTFGGNAMGWYRQAPGKERELVAAITVGGDSTYYADSVKGRFTISRDNAKNTVYLQMNSLKPEDTAVYYCAARHYWWYDYWGQGTQVTVSS” the entry was “low polyreactivity”; with “QVQLVESGGGLVQAGGSLRLSCAASGSTFFVYAMGWYRQAPGKERELVATISSAASTYYADSVKGRFTISRDNAKNTVYLQMNSLKPEDTAVYYCAAGYFIRTRSRYRYDYWGQGTQVTVSS”, “high polyreactivity”; with “QVQLVESGGGLVLAGGSLRLSCAASGRTFIGYALGWYRQAPGKERELVAAISPGGSTKYADSVKGRFTISRDNAKNTVYLQINSLKPEDNAVYYGAVGWSYYAGLRHRYYSGFDYWGQGTQVTVSS”, “low polyreactivity”. With “QVQLVESGGGLVQAGGSLRLSCAASGSTLWYYAMGWYRQAPGKERELVADITSSGNTNYADSVKGRFTISRDNAKNTVYLQMISLKPEDTAVYYCAADVTKYHDGHEYDYWGQGTQVTVSS”, the “polyreactivity (PSR sort gate)” value is listed as “low polyreactivity”. For the sequence “QLQLVESGGGLVQAGGSLRVSCAASGSIFLRYAMGWYRQAAGKERELVAAITSSGGSTYYADSVKGRFTISRDNAKNTVYLQMNSLKPEDTAVYYCNRYSYLFPYYWKYDYWGQGTQVTVSS”, the “polyreactivity (PSR sort gate)” value was “high polyreactivity”. On to “QVQLVESGGGLVQAGGSLRLSCAASGSTFSYYGMGWSRQAPGKERELVAAISWSGGSTYYADSVKGRFTISRDNAKNTVYLQMNSLKPEDTAVYYCARLDSAAEPRQYDYWGQGTQVTVSS”, for which the “polyreactivity (PSR sort gate)” value is “high polyreactivity”. As to “QVQLVESGGGLVQAGGSLRLSCAASGLTLGSYAMGWYRQAPGKERELVAAISRRSGRTYYADSVKGRFTISRDNAKNTVYLQMNSLKPEDTAVYYCAAEIPYYVDTPGDDYWGQGTQVTVSS”, the “polyreactivity (PSR sort gate)” value is reported as “low polyreactivity”. “QVQLVESGGGLVQAGGSLRLISAASGITFRYYVMGWYRHAPGKERELVASISWGGGSTYYADSVKGRFTISRDNAKNTVYLHMNSLIPEDTAVYYCAAEYWVPAVKFGYEFWGQGSQVTVSS”: the “polyreactivity (PSR sort gate)” value is given as “high polyreactivity”. With “QVQLVESGGGLVQAGGSLRLSCAASGSTFAKNAMGWYSQAPGIDRELVAAISSGGSTYYADSVKGRFTIARDNAKNTVYLQMNSLKPEDTAVYYCAASWIQGYRTYGYWGQGTQVTVSS” the entry was “high polyreactivity”. With “QVQLVESGGGLVQAGGSLRLSCAASGLIFYSYAMGWYRQAHAKERELVAAITGGGSTNYADSVKGRFTISRDNAKNTVYLQMNSLKPEDTAVYYCAAQAYVEGVYRYDYWGQGTQVTVSS” the entry was “low polyreactivity”; with “QVQLVESGGGLVQAGGSHRLSCAASGITFSTYAKGGYRQAPGKERELVAAITKSGGSTYYADSVKGRFTISRDTAKNTVYLQMNSLKPEDTAVYYCAAEGDWRGSALYNYWGLGTQVTVSS”, “low polyreactivity”. With “QVQLVESGGGLVQAGGSLRLSCAASGITFRKYAMGWYRQAPGKERELVAGIRRGGSTYYADSVKGRFTISRDNAKNTVYLQMNSLKPEDTAVYYCATRARYKRIRYDYWGQGTQVTVSS” the entry was “high polyreactivity”.

As to “QVQRVESGGGLVQAGGSLRLSCAASGRIFLIYAMGWYRPAPGKERELVAGISSGGSTYYADSVKGRFTISRDNAKNTVYLQMNSLKPEDTAVYYCAARRYYYRYLFGRYAYGYWGQGTQVNVSS”, the “polyreactivity (PSR sort gate)” value is on record as “low polyreactivity”. As to “QVQLVESGGGLVQEGGSLRLSCAASGSTFRRNAMGWYRQAPGKERELVAAISTSGGTTYYADSVKGRFTISRDYAKNTVYLQMNSLKPEDTAVYYCAAGGKKRDDYWGQGTQVTVSS”, the “polyreactivity (PSR sort gate)” value is “high polyreactivity”. Consider “QVQLVESGGGLVQAGGSLRLSCAASGRISTYTMGWYRQAPGKERELVATISTDASTNYADSVKGRFTISRDNAKNTVYLQINSLKPEDTAVYYCAAVIVNQYYDYWGQGTQVTVSS”, for which the “polyreactivity (PSR sort gate)” value is on record as “low polyreactivity”. Take “QVQLVESGGGLVQAGGSLRLSCAASGITFVRNAMGWYRQAPGKERELVAAITSRGGITYYADSVKGRFTISRDNAKNTVYLQMNSLKPEDTAVYYCNKTRGYAVNGYNYWGQGTQVTVSS”: the “polyreactivity (PSR sort gate)” value is “high polyreactivity”.

As for “QVQLVESGGGIVQAGGSLRLTCAASGFIFWDYAMGWYRQAPGKERELVAAISDSGGDTYYADSVKGRFTISRDNAKNTVYLQMNSLNPEDTAVYYCASVVELWVFRGQQYDYWGQGTQVTVSS”, the “polyreactivity (PSR sort gate)” value is on record as “low polyreactivity”. With “QVQLVESGGGLVQAGGSLRLSCAASGRILGFYAMGWYRQAPGKERELDARINWSGTRTYYADSVKGRFTISRDNAKNTVYLQMNSLKPEDTAVYYCAAERYPYGVTYSKLDYWGQGTQVTVSS” the entry was “high polyreactivity”; with “QVHLVESGGGLVQAGGSLRLSCAASGSTFAANAMGWYRQAPGKERELVAAITSSGGSTYYADSVKGRFTISRDNAKNTVYLQMNSLKPEDTAVYYCKKDIERYFRIYDSWGQGTQVTVSS”, “low polyreactivity”; with “QVQLVESGGGLVHAGGSLRLSCAASGSIFWYYTMGSYRQAPGKERELVATIRWRSGSTYYADSVKGRYTISRDNAKNTVYLQMNTQKPEDTAVYYCAADLYSAVYFSRWSDYWGQGTQVTVSS”, “high polyreactivity”. Take “QVQLVESGGGLVQAGGSLRLSCAASGRIFGSYVMGWYRQAPGKERELVAAISYSGGRTYYADSVKGRFTISRDNAKNTVYLQMNSLKPEDTAVYYCAKESSGSRYQYYYWGQGTQVTVSS”: the “polyreactivity (PSR sort gate)” value is on record as “high polyreactivity”. With “QVQLVESGGGLDQAGGSLRLTCAASGITFTQYAMGWYRQAPGKEREFVAGITFSGSSTYYADSVKGRFTISRDNAKNTVYLQMNSLKPEDTAVYYCAAESWYKYIYGYPRLFDYWGQATQVTVSS” the entry was “low polyreactivity”; with “QVQLVESGGGLVQAGGSLRLSCAASGLTFYKNAMGWYSQAPGKERELVAAITQSGGSTYYADSVKGRFTISRDNAKNTVYLQMNSLKPEDTAVYYCAAATYLNGNNYYWGQGTQVTVSS”, “high polyreactivity”. With “QVQLVESGGGLVQAGGSLRLSCAASGFTLPVYGMGWYRQAPGQERELVAAISSRGGNTYYADSVKGRFTISRDNAKNTVYLQMNSLKPEDTAVYYCAAGGITYTGDDYWGQGTQVTVSS” the entry was “high polyreactivity”. With “QVQLVESGGGLVQAGGSLRLSCAASGFIFGYNGMGGYRQAPGKERELVAGITYSDGSTYYADSVKGRFTISRDNAKNTVYLQMNSLKPEDTAVYYCAVDVIYYWAEDYDYWGQGTQVTVSS” the entry was “low polyreactivity”; with “QVQLVESGGGLVQARGSLRLSCAASGSIFYYNTMGSDRQAPGKEREFVAAITYSGGSTYYSDSVKGRFTISRDKAKKTVYLLMNSLKPEDTAVYYCAAYIFYFSGGLNNRGTRGYWGQGTQVTVSS”, “low polyreactivity”.
